T1: Cyno Semaphorin3A-Sema Domain, TPP-19122 (cynomolgus (Macaca fascicularis), UniProt Q63548 21-569 (rat entry), limits assumed)
T1 construct: produced inhouse
T1 chain: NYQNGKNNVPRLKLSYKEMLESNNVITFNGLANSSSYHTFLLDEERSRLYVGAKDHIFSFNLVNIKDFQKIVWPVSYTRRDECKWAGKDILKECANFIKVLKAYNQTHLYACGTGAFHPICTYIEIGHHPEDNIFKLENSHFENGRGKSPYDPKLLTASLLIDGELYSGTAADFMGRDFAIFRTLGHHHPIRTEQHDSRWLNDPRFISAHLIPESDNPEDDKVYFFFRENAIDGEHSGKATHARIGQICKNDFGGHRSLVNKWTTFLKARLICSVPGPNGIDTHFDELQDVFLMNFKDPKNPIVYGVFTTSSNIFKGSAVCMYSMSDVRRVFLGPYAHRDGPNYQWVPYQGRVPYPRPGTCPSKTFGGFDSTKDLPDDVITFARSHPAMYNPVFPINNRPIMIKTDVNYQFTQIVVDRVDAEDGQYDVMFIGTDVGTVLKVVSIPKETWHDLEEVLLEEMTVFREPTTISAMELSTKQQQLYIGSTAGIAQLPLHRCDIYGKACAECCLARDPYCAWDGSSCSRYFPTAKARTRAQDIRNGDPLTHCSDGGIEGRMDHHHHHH

T2: Mouse Semaphorin3A-Sema Domain, TPP-19069 (mouse, UniProt O08665 21-569)
T2 construct: produced inhouse
T2 sequence: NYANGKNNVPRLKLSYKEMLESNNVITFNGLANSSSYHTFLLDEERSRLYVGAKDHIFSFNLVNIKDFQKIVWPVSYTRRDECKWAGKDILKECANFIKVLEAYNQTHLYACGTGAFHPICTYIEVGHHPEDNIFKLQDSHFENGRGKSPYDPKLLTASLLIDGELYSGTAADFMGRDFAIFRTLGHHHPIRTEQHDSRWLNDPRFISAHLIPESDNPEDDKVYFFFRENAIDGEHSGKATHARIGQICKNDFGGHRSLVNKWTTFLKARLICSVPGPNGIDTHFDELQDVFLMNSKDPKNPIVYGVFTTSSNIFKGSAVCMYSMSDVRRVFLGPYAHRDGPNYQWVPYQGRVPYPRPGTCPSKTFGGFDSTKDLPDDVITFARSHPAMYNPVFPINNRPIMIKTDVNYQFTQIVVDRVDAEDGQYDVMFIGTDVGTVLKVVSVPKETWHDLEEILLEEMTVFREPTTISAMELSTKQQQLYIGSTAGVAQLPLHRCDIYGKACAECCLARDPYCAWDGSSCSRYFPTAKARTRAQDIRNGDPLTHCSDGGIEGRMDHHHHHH

T3: Human Semaphorin3A-Sema Domain, TPP-19068 (human, UniProt Q14563 21-569)
T3 construct: produced inhouse in HEK293-6E; also called human monovalent Sema3A domain
T3 sequence: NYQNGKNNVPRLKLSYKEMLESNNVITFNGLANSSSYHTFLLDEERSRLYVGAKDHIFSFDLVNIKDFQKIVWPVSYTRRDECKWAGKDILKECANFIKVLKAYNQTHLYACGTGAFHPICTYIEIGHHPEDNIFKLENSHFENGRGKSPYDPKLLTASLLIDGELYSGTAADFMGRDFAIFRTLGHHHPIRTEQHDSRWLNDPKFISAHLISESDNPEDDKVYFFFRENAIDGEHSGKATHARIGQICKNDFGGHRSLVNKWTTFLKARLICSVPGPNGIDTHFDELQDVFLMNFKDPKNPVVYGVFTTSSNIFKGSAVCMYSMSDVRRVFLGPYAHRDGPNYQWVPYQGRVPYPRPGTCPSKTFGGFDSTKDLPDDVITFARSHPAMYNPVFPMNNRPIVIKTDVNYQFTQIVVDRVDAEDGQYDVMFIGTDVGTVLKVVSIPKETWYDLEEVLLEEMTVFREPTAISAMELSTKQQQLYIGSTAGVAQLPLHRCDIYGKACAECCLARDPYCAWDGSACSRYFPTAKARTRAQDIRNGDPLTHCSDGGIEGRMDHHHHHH


How the values were obtained:
[1] = target: T1, Cyno Semaphorin3A-Sema Domain, TPP-19122; assay: SPR, captured antibody, Sema3A domain analyte
Protocol: (§1) To assess the binding kinetics and affinity of anti-Sema3A antibodies as well as their species cross-reactivity profile, binding assays were conducted using surface plasmon resonance (SPR). Binding assays were performed on a Biacore T200 instrument or on a Biacore 8K+ instrument (Cytiva) at 25° C. using assay buffer HBS P+, 300 mM NaCl, 0.75 mM CaCl₂, 2.5 mM MgCl₂, 1 mg/ml BSA, 0.05% NaN₃. Antibodies were captured either via anti-human Fc IgGs (“Human antibody capture kit”, Order No. BR100839, Cytiva) or in case of Fc-tagged analytes by anti-human Fab IgGs (“Human Fab capture kit”, Order No. 28958325, Cytiva) covalently amine coupled to a Series S CM5 sensor chip (Cytiva). The amine coupling was carried out according to the manufacturer's instructions using 1-ethyl-3-(3-dimethylaminopropyl) carbodiimide hydrochloride (EDC), N-hydroxysuccinimide (NHS) and ethanolamine HCl, pH 8.5 (“Amine Coupling Kit” BR-1000-50, Cytiva.). For phage display hits Fc-tagged human and mouse Sema3A was used as analytes in a concentration range from 1.56-200 nM. Human, mouse, cynomolgus, rat, dog and pig monovalent Sema3A domain were used as analytes in a concentration series from […] in multi cycle kinetics mode or in 100 nM for binding analysis only. The sensor surface was regenerated with glycine pH 2.0 after each antigen injection. Obtained sensorgrams were double referenced (subtraction of reference flow cell signal and buffer injection) and were fitted to a 1:1 Langmuir binding model to derive kinetic data using the Biacore T200 Evaluation software.

[2] = target: T2, Mouse Semaphorin3A-Sema Domain, …; assay: SPR, captured antibody, Sema3A domain analyte
Protocol: as §1

[3] = target: T3, Human Semaphorin3A-Sema Domain, …; assay: SPR, captured antibody, Sema3A domain analyte
Protocol: as §1

[4] = target: T4, Human Semaphorin3A-Fc (R&D Systems), TPP-13211 (human); assay: competition ELISA on coated TPP-13211, competitor biotinylated TPP-15374
T4 construct: R&D Systems 1250-S3; also called recombinant human Sema3A-Fc chimera
Protocol: For screening in a competition ELISA setup, human Sema3a (TPP-13211) was coated onto 384-well plates (Greiner bio-one, 781077) with a concentration of 0.5 μg/ml in coating buffer (Carbonate-Basis pH 9.6, Candor 121125) over night at 10° C. After washing the plates 3 times with 50 μl PBS 0.05% Tween the plates were blocked with 50 μl Smart Block® (Candor 113500) for 1 h at 20° C. and washed again 3 times as described.
Subsequently, 20 μl of pre-mixed antibody solution was added to the plates and incubate for 18 h at 10° C. […] The total concentration of the added antibody solution was 0.25 μg/ml. During the incubation time the antibodies bound to the plates in a competitive manner as they compete for the same epitope on the human Sema3A protein.
After subsequent washing with 50 μl PBS 0.05% Tween for 3 times, 20 μl of a Streptavidin-HRP solution (R&D Systems, DY998, 1:200 in PBS 0.05% Tween 10% Smart Block) were added and incubated for 1 h and 20° C. followed by subsequent washing 3 times with 50 μl PBS 0.05% Tween and addition of 20 μl Amplex Red solution (Invitrogen A12222, 1:1000 in NaP-buffer 50 mM pH7.6 with 1:10000 of 30% H2O2). After a final incubation for 20 min at 20° C. the signal was determined using an emission wavelength of 595 nm and excitation of 530 nm.

T4 sequence (chain, as listed by the source limits assumed): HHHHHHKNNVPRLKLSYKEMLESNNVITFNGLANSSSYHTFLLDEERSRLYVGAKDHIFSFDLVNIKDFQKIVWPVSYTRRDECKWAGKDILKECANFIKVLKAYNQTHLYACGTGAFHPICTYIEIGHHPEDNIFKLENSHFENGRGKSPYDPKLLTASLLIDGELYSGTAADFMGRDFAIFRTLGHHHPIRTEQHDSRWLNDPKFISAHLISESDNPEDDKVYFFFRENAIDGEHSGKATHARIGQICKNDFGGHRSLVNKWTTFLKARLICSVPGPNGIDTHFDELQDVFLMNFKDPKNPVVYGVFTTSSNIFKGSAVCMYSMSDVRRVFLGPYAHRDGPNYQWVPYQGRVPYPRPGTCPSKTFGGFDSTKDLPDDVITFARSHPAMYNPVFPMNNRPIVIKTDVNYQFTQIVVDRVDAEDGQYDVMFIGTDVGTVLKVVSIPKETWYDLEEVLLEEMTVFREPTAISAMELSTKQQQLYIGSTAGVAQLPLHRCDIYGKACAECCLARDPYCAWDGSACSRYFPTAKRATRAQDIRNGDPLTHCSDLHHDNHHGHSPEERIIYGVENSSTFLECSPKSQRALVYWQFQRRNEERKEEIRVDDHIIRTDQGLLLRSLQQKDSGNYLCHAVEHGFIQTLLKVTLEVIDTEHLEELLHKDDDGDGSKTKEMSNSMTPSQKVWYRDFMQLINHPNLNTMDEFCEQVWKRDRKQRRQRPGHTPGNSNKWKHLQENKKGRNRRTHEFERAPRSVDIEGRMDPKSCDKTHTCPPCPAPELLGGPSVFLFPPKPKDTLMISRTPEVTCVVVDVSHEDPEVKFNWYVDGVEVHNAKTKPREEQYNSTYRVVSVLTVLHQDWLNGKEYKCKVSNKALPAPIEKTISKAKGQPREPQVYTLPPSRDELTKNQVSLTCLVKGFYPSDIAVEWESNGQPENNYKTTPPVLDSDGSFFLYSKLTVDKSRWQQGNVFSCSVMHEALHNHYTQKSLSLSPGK

Kd [1] [pM] | Kd [2] [pM] | Kd [3] [pM] | VAL norm to TPP-9809 (1 to 1 ratio) [4] | VAL norm to TPP-9809 (1 to 5 ratio) [4] | Binder
6400 | 8100 | 8700 |  |  | TPP-18533 (antibody, human IgG1, lambda, V domains shown, IgG1) VH: EVQLLESGGGLVQPGGSLRLSCAASGFTFSSYEMNWVRQAPGKGLEWVSGISWNSGSIGYADSVKGRFTISRDNSKNTLYLQMNSLRAEDTAVYYCARSGYSSSWFDPDFDYWGQGTLVTVSS VL: QSVLTQPPSVSGAPGQRVTISCTGSSSNIGAGYDVHWYQQLPGTAPKLLIYGNSNRPSGVPDRFSGSKSGTSASLAITGLQAEDEADYYCSSYAGSNPYVVFGGGTKLTVLG
 |  | 49 | 0.48 | 0.19 | TPP-25064 (antibody, human IgG1, lambda, V domains shown) VH: EVQLLESGGGLVQPGGSLRLSCAASGFTFDSYEMNWVRQAPGKGLEWVSGISWNSGWIDYADSVKGRFTISRDNSKNTLYLQMNSLRAEDTAVYYCARSGYSSSWFDPDFDYWGQGTLVTVSS VL: QSVLTQPPSVSGAPGQRVTISCTGSSSDIGAGYDVHWYQQLPGTAPKLLIYGNSNRPSGVPDRFSGSKSGTSASLAITGLQAEDEADYYCSSYAGPNPYVVFGGGTKLTVLG
 |  | 50 | 0.36 | 0.2 | TPP-25248 (antibody, human IgG1, lambda, V domains shown) VH: EVQLLESGGGLVQPGGSLRLSCAASGFDFSSYEMNWVRQAPGKGLEWVSGISWNSGWIGYADSVKGRFTISRDNSKNTLYLQMNSLRAEDTAVYYCARSGYSSSWFDPDFDYWGQGTLVTVSS VL: QSVLTQPPSVSGAPGQRVTISCTGSSSNIGAGYDVHWYQQLPGTAPKLLIYGNSNRPSGVPDRFSGSKSGTSASLAITGLQAEDEADYYCQSYAGPNPYVVFGGGTKLTVLG
 |  | 49 | 0.43 | 0.17 | TPP-25224 (antibody, human IgG1, lambda, V domains shown) VH: EVQLLESGGGLVQPGGSLRLSCAASGFTFDSYEMNWVRQAPGKGLEWVSGISWNSGWIDYADSVKGRFTISRDNSKNTLYLQMNSLRAEDTAVYYCARSGYSSSWFDPDFDYWGQGTLVTVSS VL: QSVLTQPPSVSGAPGQRVTISCTGSSSNIGAGYDVHWYQQLPGTAPKLLIYGNSNRPSGVPDRFSGSKSGTSASLAITGLQAEDEADYYCQSYAGINPYVVFGGGTKLTVLG

Further lines, the binder ahead of its results:

Binder | Kd [1] [pM] | Kd [2] [pM] | Kd [3] [pM] | VAL norm to TPP-9809 (1 to 1 ratio) [4] | VAL norm to TPP-9809 (1 to 5 ratio) [4]
TPP-25257 (antibody, human IgG1, lambda, V domains shown) VH: EVQLLESGGGLVQPGGSLRLSCAASGFDFDSYEMNWVRQAPGKGLEWVSGISWNSGWIDYADSVKGRFTISRDNSKNTLYLQMNSLRAEDTAVYYCARSGYSSSWFDPDFDYWGQGTLVTVSS VL: QSVLTQPPSVSGAPGQRVTISCTGSSSNIGAGYDVHWYQQLPGTAPKLLIYGNSNRPSGVPDRFSGSKSGTSASLAITGLQAEDEADYYCQSYAGPNPYVVFGGGTKLTVLG |  |  | 53 | 0.36 | 0.18
TPP-25255 (antibody, human IgG1, lambda, V domains shown) VH: EVQLLESGGGLVQPGGSLRLSCAASGFDFSSYEMNWVRQAPGKGLEWVSGISWNSGWIDYADSVKGRFTISRDNSKNTLYLQMNSLRAEDTAVYYCARSGYSSSWFDPDFDYWGQGTLVTVSS VL: QSVLTQPPSVSGAPGQRVTISCTGSSSNIGAGYDVHWYQQLPGTAPKLLIYGNSNRPSGVPDRFSGSKSGTSASLAITGLQAEDEADYYCQSYAGPNPYVVFGGGTKLTVLG |  |  | 51 | 0.37 | 0.17
TPP-25256 (antibody, human IgG1, lambda, V domains shown) VH: EVQLLESGGGLVQPGGSLRLSCAASGFTFDSYEMNWVRQAPGKGLEWVSGISWNSGWIDYADSVKGRFTISRDNSKNTLYLQMNSLRAEDTAVYYCARSGYSSSWFDPDFDYWGQGTLVTVSS VL: QSVLTQPPSVSGAPGQRVTISCTGSSSNIGAGYDVHWYQQLPGTAPKLLIYGNSNRPSGVPDRFSGSKSGTSASLAITGLQAEDEADYYCQSYAGPNPYVVFGGGTKLTVLG |  |  | 49 | 0.41 | 0.15
